Legend:
[1] = tested on: HeLa Kyoto; test: melting temperature (median over replicates), in situ; higher = more thermally stable
[2] = tested on: HeLa Kyoto; test: solubility in G1/S (NP-40 vs SDS abundance) (log2 ratio); higher = more soluble; conditions: cell cycle stage: G1/S
[3] = tested on: HeLa Kyoto; test: solubility change mitosis vs G1/S (difference of NP-40 vs SDS log2 ratios) (log2 ratio difference); higher = more soluble in mitosis
[4] = tested on: HeLa Kyoto; test: thermal stability score vs G1/S (z-score of summed log2 fold changes over temperatures); higher = more thermally stable than in G1/S
[5] = cell cycle stage: early G1 (4.5 h after nocodazole release)
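Wherever melting temperature (median over replicates), in situ is given: HeLa Kyoto cells synchronized by double thymidine or nocodazole block, proteins quantified by TMT10plex mass spectrometry, three independent biological replicates.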
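Wherever solubility change mitosis vs G1/S (difference of NP-40 vs SDS log2 ratios) is given: synchronized HeLa Kyoto cells (double thymidine block for G1/S, nocodazole release for mitosis), protein amounts in NP-40 versus SDS lysates quantified by mass spectrometry, three biological replicates.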
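Wherever solubility in G1/S (NP-40 vs SDS abundance) is given: HeLa Kyoto cells arrested at G1/S by double thymidine block, proteins quantified by TMT10plex mass spectrometry in mild NP-40 versus SDS extracts, three biological replicates.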
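Wherever thermal stability score vs G1/S (z-score of summed log2 fold changes over temperatures) is given: synchronized HeLa Kyoto cells, proteins quantified by TMT10plex mass spectrometry, three biological replicates, mitosis taken 0.5 h after nocodazole release, G1/S directly after double thymidine block.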

Sequence	melting temperature ([1]; cell cycle stage: G1/S) [°C]	melting temperature ([1]; cell cycle stage: mitosis) [°C]	solubility in G1/S (log2) [2]	solubility change mitosis (log2) [3]	thermal stability score [4, 5]	thermal stability score ([4]; cell cycle stage: mitosis)
MLPGLAAAAAHRCSWSSLCRLRLRCRAAACNPSDRQEWQNLVTFGSFSNMVPCSHPYIGTLSQVKLYSTNVQKEGQGSQTLRVEKVPSFETAEGIGTELKAPLKQEPLQVRVKAVLKKREYGSKYTQNNFITGVRAINEFCLKSSDLEQLRKIRRRSPHEDTESFTVYLRSDVEAKSLEVWGSPEALAREKKLRKEAEIEYRERLFRNQKILREYRDFLGNTKPRSRTASVFFKGPGKVVMVAICINGLNCFFKFLAWIYTGSASMFSEAIHSLSDTCNQGLLALGISKSVQTPDPSHPYGFSNMRYISSLISGVGIFMMGAGLSWYHGVMGLLHPQPIESLLWAYCILAGSLVSEGATLLVAVNELRRNARAKGMSFYKYVMESRDPSTNVILLEDTAAVLGVIIAATCMGLTSITGNPLYDSLGSLGVGTLLGMVSAFLIYTNTEALLGRSIQPEQVQRLTELLENDPSVRAIHDVKATDLGLGKVRFKAEVDFDGRVVTRSYLEKQDFDQMLQEIQEVKTPEELETFMLKHGENIIDTLGAEVDRLEKELKKRNPEVRHVDLEIL [SLC30A9]	51.1	51.9	-0.0134	-0.0502	-0.0363	-0.00857
MGDVLSTHLDDARRQHIAEKTGKILTEFLQFYEDQYGVALFNSMRHEIEGTGLPQAQLLWRKVPLDERIVFSGNLFQHQEDSKKWRNRFSLVPHNYGLVLYENKAAYERQVPPRAVINSAGYKILTSVDQYLELIGNSLPGTTAKSGSAPILKCPTQFPLILWHPYARHYYFCMMTEAEQDKWQAVLQDCIRHCNNGIPEDSKVEGPAFTDAIRMYRQSKELYGTWEMLCGNEVQILSNLVMEELGPELKAELGPRLKGKPQERQRQWIQISDAVYHMVYEQAKARFEEVLSKVQQVQPAMQAVIRTDMDQIITSKEHLASKIRAFILPKAEVCVRNHVQPYIPSILEALMVPTSQGFTEVRDVFFKEVTDMNLNVINEGGIDKLGEYMEKLSRLAYHPLKMQSCYEKMESLRLDGLQQRFDVSSTSVFKQRAQIHMREQMDNAVYTFETLLHQELGKGPTKEELCKSIQRVLERVLKKYDYDSSSVRKRFFREALLQISIPFLLKKLAPTCKSELPRFQELIFEDFARFILVENTYEEVVLQTVMKDILQAVKEAAVQRKHNLYRDSMVMHNSDPNLHLLAEGAPIDWGEEYSNSGGGGSPSPSTPESATLSEKRRRAKQVVSVVQDEEVGLPFEASPESPPPASPDGVTEIRGLLAQGLRPESPPPAGPLLNGAPAGESPQPKAAPEASSPPASPLQHLLPGKAVDLGPPKPSDQETGEQVSSPSSHPALHTTTEDSAGVQTEF [FAM129B]	51.6	51.2	0.283	-0.0461	-0.711	2.24
MSSGKSARYNRFSGGPSNLPTPDVTTGTRMETTFGPAFSAVTTITKADGTSTYKQHCRTPSSSSTLAYSPRDEEDSMPPISTPRRSDSAISVRSLHSESSMSLRSTFSLPEEEEEPEPLVFAEQPSVKLCCQLCCSVFKDPVITTCGHTFCRRCALKSEKCPVDNVKLTVVVNNIAVAEQIGELFIHCRHGCRVAGSGKPPIFEVDPRGCPFTIKLSARKDHEGSCDYRPVRCPNNPSCPPLLRMNLEAHLKECEHIKCPHSKYGCTFIGNQDTYETHLETCRFEGLKEFLQQTDDRFHEMHVALAQKDQEIAFLRSMLGKLSEKIDQLEKSLELKFDVLDENQSKLSEDLMEFRRDASMLNDELSHINARLNMGILGSYDPQQIFKCKGTFVGHQGPVWCLCVYSMGDLLFSGSSDKTIKVWDTCTTYKCQKTLEGHDGIVLALCIQGCKLYSGSADCTIIVWDIQNLQKVNTIRAHDNPVCTLVSSHNVLFSGSLKAIKVWDIVGTELKLKKELTGLNHWVRALVAAQSYLYSGSYQTIKIWDIRTLDCIHVLQTSGGSVYSIAVTNHHIVCGTYENLIHVWDIESKEQVRTLTGHVGTVYALAVISTPDQTKVFSASYDRSLRVWSMDNMICTQTLLRHQGSVTALAVSRGRLFSGAVDSTVKVWTC [TRAF7]	50.5	–	-0.171	-0.0251	-0.465	0.328
MEDSEALGFEHMGLDPRLLQAVTDLGWSRPTLIQEKAIPLALEGKDLLARARTGSGKTAAYAIPMLQLLLHRKATGPVVEQAVRGLVLVPTKELARQAQSMIQQLATYCARDVRVANVSAAEDSVSQRAVLMEKPDVVVGTPSRILSHLQQDSLKLRDSLELLVVDEADLLFSFGFEEELKSLLCHLPRIYQAFLMSATFNEDVQALKELILHNPVTLKLQESQLPGPDQLQQFQVVCETEEDKFLLLYALLKLSLIRGKSLLFVNTLERSYRLRLFLEQFSIPTCVLNGELPLRSRCHIISQFNQGFYDCVIATDAEVLGAPVKGKRRGRGPKGDKASDPEAGVARGIDFHHVSAVLNFDLPPTPEAYIHRAGRTARANNPGIVLTFVLPTEQFHLGKIEELLSGENRGPILLPYQFRMEEIEGFRYRCRDAMRSVTKQAIREARLKEIKEELLHSEKLKTYFEDNPRDLQLLRHDLPLHPAVVKPHLGHVPDYLVPPALRGLVRPHKKRKKLSSSCRKAKRAKSQNPLRSFKHKGKKFRPTAKPS [DDX56]	51.8	52	-1.13	0.785	0.609	0.497
MPGPAAGSRARVYAEVNSLRSREYWDYEAHVPSWGNQDDYQLVRKLGRGKYSEVFEAINITNNERVVVKILKPVKKKKIKREVKILENLRGGTNIIKLIDTVKDPVSKTPALVFEYINNTDFKQLYQILTDFDIRFYMYELLKALDYCHSKGIMHRDVKPHNVMIDHQQKKLRLIDWGLAEFYHPAQEYNVRVASRYFKGPELLVDYQMYDYSLDMWSLGCMLASMIFRREPFFHGQDNYDQLVRIAKVLGTEELYGYLKKYHIDLDPHFNDILGQHSRKRWENFIHSENRHLVSPEALDLLDKLLRYDHQQRLTAKEAMEHPYFYPVVKEQSQPCADNAVLSSGLTAAR [CSNK2A2]	50.7	50.3	-0.244	0.0267	1.94	2.34
MPAERPAGSGGSEAPAMVEQLDTAVITPAMLEEEEQLEAAGLERERKMLEKARMSWDRESTEIRYRRLQHLLEKSNIYSKFLLTKMEQQQLEEQKKKEKLERKKESLKVKKGKNSIDASEEKPVMRKKRGREDESYNISEVMSKEEILSVAKKNKKENEDENSSSTNLCVEDLQKNKDSNSIIKDRLSETVRQNTKFFFDPVRKCNGQPVPFQQPKHFTGGVMRWYQVEGMEWLRMLWENGINGILADEMGLGKTVQCIATIALMIQRGVPGPFLVCGPLSTLPNWMAEFKRFTPDIPTMLYHGTQEERQKLVRNIYKRKGTLQIHPVVITSFEIAMRDRNALQHCYWKYLIVDEGHRIKNMKCRLIRELKRFNADNKLLLTGTPLQNNLSELWSLLNFLLPDVFDDLKSFESWFDITSLSETAEDIIAKEREQNVLHMLHQILTPFLLRRLKSDVALEVPPKREVVVYAPLSKKQEIFYTAIVNRTIANMFGSSEKETIELSPTGRPKRRTRKSINYSKIDDFPNELEKLISQIQPEVDRERAVVEVNIPVESEVNLKLQNIMMLLRKCCNHPYLIEYPIDPVTQEFKIDEELVTNSGKFLILDRMLPELKKRGHKVLLFSQMTSMLDILMDYCHLRDFNFSRLDGSMSYSEREKNMHSFNTDPEVFIFLVSTRAGGLGINLTAADTVIIYDSDWNPQSDLQAQDRCHRIGQTKPVVVYRLVTANTIDQKIVERAAAKRKLEKLIIHKNHFKGGQSGLNLSKNFLDPKELMELLKSRDYEREIKGSREKVISDKDLELLLDRSDLIDQMNASGPIKEKMGIFKILENSEDSSPECLF [HELLS]	46.2	48.2	-0.204	0.252	1.77	3.02
MSAPFEERSGVVPCGTPWGQWYQTLEEVFIEVQVPPGTRAQDIQCGLQSRHVALSVGGREILKGKLFDSTIADEGTWTLEDRKMVRIVLTKTKRDAANCWTSLLESEYAADPWVQDQMQRKLTLERFQKENPGFDFSGAEISGNYTKGGPDFSNLEK [NUDCD2]	47.7	49.5	0.372	0.035	1.01	2.41
MEQEPQNGEPAEIKIIREAYKKAFLFVNKGLNTDELGQKEEAKNYYKQGIGHLLRGISISSKESEHTGPGWESARQMQQKMKETLQNVRTRLEILEKGLATSLQNDLQEVPKLYPEFPPKDMCEKLPEPQSFSSAPQHAEVNGNTSTPSAGAVAAPASLSLPSQSCPAEAPPAYTPQAAEGHYTVSYGTDSGEFSSVGEEFYRNHSQPPPLETLGLDADELILIPNGVQIFFVNPAGEVSAPSYPGYLRIVRFLDNSLDTVLNRPPGFLQVCDWLYPLVPDRSPVLKCTAGAYMFPDTMLQAAGCFVGVVLSSELPEDDRELFEDLLRQMSDLRLQANWNRAEEENEFQIPGRTRPSSDQLKEASGTDVKQLDQGNKDVRHKGKRGKRAKDTSSEEVNLSHIVPCEPVPEEKPKELPEWSEKVAHNILSGASWVSWGLVKGAEITGKAIQKGASKLRERIQPEEKPVEVSPAVTKGLYIAKQATGGAAKVSQFLVDGVCTVANCVGKELAPHVKKHGSKLVPESLKKDKDGKSPLDGAMVVAASSVQGFSTVWQGLECAAKCIVNNVSAETVQTVRYKYGYNAGEATHHAVDSAVNVGVTAYNINNIGIKAMVKKTATQTGHTLLEDYQIVDNSQRENQEGAANVNVRGEKDEQTKEVKEAKKKDK [SPG20]	49.8	50.4	0.205	-0.0384	1.64	1.92
MAATLGPLGSWQQWRRCLSARDGSRMLLLLLLLGSGQGPQQVGAGQTFEYLKREHSLSKPYQGVGTGSSSLWNLMGNAMVMTQYIRLTPDMQSKQGALWNRVPCFLRDWELQVHFKIHGQGKKNLHGDGLAIWYTKDRMQPGPVFGNMDKFVGLGVFVDTYPNEEKQQERVFPYISAMVNNGSLSYDHERDGRPTELGGCTAIVRNLHYDTFLVIRYVKRHLTIMMDIDGKHEWRDCIEVPGVRLPRGYYFGTSSITGDLSDNHDVISLKLFELTVERTPEEEKLHRDVFLPSVDNMKLPEMTAPLPPLSGLALFLIVFFSLVFSVFAIVIGIILYNKWQEQSRKRFY [LMAN2L]	53.7	54.1	-0.0714	-0.146	-0.409	-1.27
MALLHSGRVLPGIAAAFHPGLAAAASARASSWWTHVEMGPPDPILGVTEAFKRDTNSKKMNLGVGAYRDDNGKPYVLPSVRKAEAQIAAKNLDKEYLPIGGLAEFCKASAELALGENSEVLKSGRFVTVQTISGTGALRIGASFLQRFFKFSRDVFLPKPTWGNHTPIFRDAGMQLQGYRYYDPKTCGFDFTGAVEDISKIPEQSVLLLHACAHNPTGVDPRPEQWKEIATVVKKRNLFAFFDMAYQGFASGDGDKDAWAVRHFIEQGINVCLCQSYAKNMGLYGERVGAFTMVCKDADEAKRVESQLKILIRPMYSNPPLNGARIAAAILNTPDLRKQWLQEVKVMADRIIGMRTQLVSNLKKEGSTHNWQHITDQIGMFCFTGLKPEQVERLIKEFSIYMTKDGRISVAGVTSSNVGYLAHAIHQVTK [GOT2]	59.4	58.8	0.165	-0.0966	-1.18	-2.25
MATEHVNGNGTEEPMDTTSAVIHSENFQTLLDAGLPQKVAEKLDEIYVAGLVAHSDLDERAIEALKEFNEDGALAVLQQFKDSDLSHVQNKSAFLCGVMKTYRQREKQGTKVADSSKGPDEAKIKALLERTGYTLDVTTGQRKYGGPPPDSVYSGQQPSVGTEIFVGKIPRDLFEDELVPLFEKAGPIWDLRLMMDPLTGLNRGYAFVTFCTKEAAQEAVKLYNNHEIRSGKHIGVCISVANNRLFVGSIPKSKTKEQILEEFSKVTEGLTDVILYHQPDDKKKNRGFCFLEYEDHKTAAQARRRLMSGKVKVWGNVGTVEWADPIEDPDPEVMAKVKVLFVRNLANTVTEEILEKAFSQFGKLERVKKLKDYAFIHFDERDGAVKAMEEMNGKDLEGENIEIVFAKPPDQKRKERKAQRQAAKNQMYDDYYYYGPPHMPPPTRGRGRGGRGGYGYPPDYYGYEDYYDYYGYDYHNYRGGYEDPYYGYEDFQVGARGRGGRGARGAAPSRGRGAAPPRGRAGYSQRGGPGSARGVRGARGGAQQQRGRGVRGARGGRGGNVGGKRKADGYNQPDSKRRQTNNQNWGSQPIAQQPLQGGDHSGNYGYKSENQEFYQDTFGQQWK [SYNCRIP]	51.3	50.8	0.0281	0.0879	-1.08	-0.356
